The target of one test is human Tie2-Fc (human, UniProt Q02763 23-748). In words: ELISA. On the technique in general: In an ELISA, binding on a coated surface is turned into a signal by an enzyme label.
For test [1], the target named is T1, biotinylated huAng2 (human, UniProt O15123, biotin). Briefly: ELISA.
In the next test the target is human Ang2 protein (Homo sapiens (Human)., UniProt O15123). In words: KinExA. (A kinetic exclusion assay measures how much of one partner remains free in solution.)
The target of test [2] is T1, biotinylated huAng2. Briefly: ELISA. This is another data set of the same source.

As a reminder, the IC50 is the midpoint of a concentration-inhibition curve. Low values mean greater potency, high ones weaker potency. In general, Kd refers to the free concentration of one partner at which half of the binding sites on the other are occupied at equilibrium, for simple one-to-one binding.

Where a chain is given by its changes, count along the chain named. Bounds are passed on as bounds.

human Tie2-Fc, sequence (Q02763 23-748): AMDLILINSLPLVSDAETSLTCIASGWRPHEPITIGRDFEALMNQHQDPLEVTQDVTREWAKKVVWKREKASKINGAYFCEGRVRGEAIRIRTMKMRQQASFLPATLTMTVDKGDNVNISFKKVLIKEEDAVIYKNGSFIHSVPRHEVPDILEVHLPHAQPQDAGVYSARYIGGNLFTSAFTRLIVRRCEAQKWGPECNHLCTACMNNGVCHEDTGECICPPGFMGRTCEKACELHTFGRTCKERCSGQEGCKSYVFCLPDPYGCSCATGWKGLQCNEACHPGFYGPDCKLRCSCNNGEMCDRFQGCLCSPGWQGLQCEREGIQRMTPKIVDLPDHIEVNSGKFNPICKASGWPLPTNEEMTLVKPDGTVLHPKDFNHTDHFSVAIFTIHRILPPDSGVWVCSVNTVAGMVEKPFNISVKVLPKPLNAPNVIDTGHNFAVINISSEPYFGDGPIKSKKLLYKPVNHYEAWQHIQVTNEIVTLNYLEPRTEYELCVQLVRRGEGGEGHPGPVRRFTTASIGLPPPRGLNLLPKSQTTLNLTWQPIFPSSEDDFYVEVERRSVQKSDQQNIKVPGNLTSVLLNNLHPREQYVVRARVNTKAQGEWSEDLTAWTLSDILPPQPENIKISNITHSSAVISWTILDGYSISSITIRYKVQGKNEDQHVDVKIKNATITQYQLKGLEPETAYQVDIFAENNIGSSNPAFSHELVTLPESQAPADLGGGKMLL

B1: biotinylated huAng2 (ligand, human, UniProt O15123 19-496, looked up)
chain: YNNFRKSMDSIGKKQYQVQHGSCSYTFLLPEMDNCRSSSSPYVSNAVQRDAPLEYDDSVQRLQVLENIMENNTQWLMKLENYIQDNMKKEMVEIQQNAVQNQTAVMIEIGTNLLNQTAEQTRKLTDVEAQVLNQTTRLELQLLEHSLSTNKLEKQILDQTSEINKLQDKNSFLEKKVLAMEDKHIIQLQSIKEEKDQLQVLVSKQNSIIEELEKKIVTATVNNSVLQKQQHDLMETVNNLLTMMSTSNSAKDPTVAKEEQISFRDCAEVFKSGHTTNGIYTLTFPNSTEEIKAYCDMEAGGGGWTIIQRREDGSVDFQRTWKEYKVGFGNPSGEYWLGNEFVSQLTNQQRYVLKIHLKDWEGNEAYSLYEHFYLSSEELNYRIHLKGLTGTAGKISSISQPGNDFSTKDGDNDKCICKCSQMLTGGWWFDACGPSNLNGMYYPQRQNTNKFNGIKWYYWKGSGYSLKATTMMIRPADF
modifications: biotin
On to B1, for which, in the test with human Tie2-Fc, the binding result is recorded as “binds”.

B2: Ang2 mAb (antibody, V domains shown)
VH: QVQLVESGGGVVQPGRSLRLSCAASGFTFTNYGMHWGRQAPGKGLEWVAVISHDGNNKYYVDSVKGRFTISRDNSKNTLYLQMNSLRAEDTAVYYCAREGIDFWSGLNWFDPWGQGTLVTVSS
VL: EIVLTQSPGTLSLSPGERATLSCRASQSITGSYLAWYQQKPGQAPRLLICGASSWATGIPDRFSGSGSGTDFTLTISRLEPEDFAVYYCQQYSSSPITFGQGTRLEIK
Molecule B2 showed an IC50 with biotinylated huAng2 [1] of 0.2 nM. The Kd with human Ang2 protein was found to be 0.0245 nM.

B3: Ang2 mAb variant Cys49Gly (antibody, V domains shown)
VH: B2 VH
VL: B2 VL with C50G
As to B3, in the test with biotinylated huAng2 [2], the “fold change of potency against Ang2 mAb” value is no more than 2.5 fold.

B4: Cys49Asn (antibody, V domains shown)
VH: B2 VH
VL: B2 VL with C50N
On to B4, for which, in the test with biotinylated huAng2 [2], the binding result was “binds”.

B5: Ang2 mAb variant Cys49Glu (antibody, V domains shown)
VH: B2 VH
VL: B2 VL with C50E
In the case of B5, in the test with biotinylated huAng2 [2], the binding result was “binds”.

B6: Cys49Asp (antibody, V domains shown)
VH: B2 VH
VL: B2 VL with C50D
Turning to B6, the binding result with biotinylated huAng2 [2] is recorded as “binds”.

B7: Ang2 mAb variant Cys49Ala (antibody, V domains shown)
VH: B2 VH
VL: B2 VL with C50A
For B7, in the test with biotinylated huAng2 [2], the “fold change of potency against Ang2 mAb” value was no more than 2.5 fold.

B8: Ang2 mAb variant Cys49Phe (antibody, V domains shown)
VH: B2 VH
VL: B2 VL with C50F
As for B8, the binding result with biotinylated huAng2 [2] is on record as “binds”.

B9: Cys49Thr mAb (antibody, V domains shown)
VH: B2 VH
VL: B2 VL with C50T
As for B9, half-maximal inhibition with biotinylated huAng2 [1] (IC50) was put at 0.28 nM. Further, in the test with human Ang2 protein, the Kd stood at 0.037 nM.
